Laboratory results as given in patent WO2007124463A1 (dated 2007).

Experiments:
glucagon [1] = target: T1, glucagon (UniProt P01275 53-81); assay: cell-based or functional assay
glucagon [2] = target: T1, glucagon; assay: inhibition of 200 pM 125I-glucagon binding to crude membranes of cells expressing the glucagon receptor, dose range of AG159
human GLP-1 receptor [3] = target: T2, human GLP-1 receptor (human, UniProt P43220 24-463); assay: cell-based or functional assay
mouse GLP-1 receptor = target: T3, mouse GLP-1 receptor (mouse, UniProt O35659 22-463); assay: cell-based or functional assay
T3 sequence (looked up): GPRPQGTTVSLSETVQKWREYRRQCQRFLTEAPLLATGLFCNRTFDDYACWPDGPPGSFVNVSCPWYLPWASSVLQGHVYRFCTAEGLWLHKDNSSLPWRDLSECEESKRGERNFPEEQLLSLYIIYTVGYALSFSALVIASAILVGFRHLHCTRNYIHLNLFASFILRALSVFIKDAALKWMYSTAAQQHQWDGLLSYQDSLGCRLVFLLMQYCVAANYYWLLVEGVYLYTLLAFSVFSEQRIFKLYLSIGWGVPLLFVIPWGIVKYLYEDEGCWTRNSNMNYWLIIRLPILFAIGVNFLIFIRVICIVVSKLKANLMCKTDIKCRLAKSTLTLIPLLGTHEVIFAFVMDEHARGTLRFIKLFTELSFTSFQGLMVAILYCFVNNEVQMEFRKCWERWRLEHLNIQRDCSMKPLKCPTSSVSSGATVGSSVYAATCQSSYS

human GLP-1 receptor [4] = target: T2, human GLP-1 receptor; assay: displacement of 0.2 nM 125I-GLP-1 from membranes of CHOK1 cells expressing human GLP-1 receptor

T1 sequence (P01275 53-81): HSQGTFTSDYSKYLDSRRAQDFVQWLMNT

B1: AG159 fully human anti-glucagon monoclonal antibody (antibody, V domains shown, not shown: a dimerising Fc or GST)
VH: QVQLVESGGGVVQPGRSLRLSCAASGFTFSSYGMHWVRQAPGKGLEWVAVIYYDGSNKYYADSVKGRFTISRDITKNTLYLQMNSLRAEDTAVYYCARASRGFDYWGQGTLVTVSS
VL: EIVLTQSPATLSLSPGDRATLSCRASQSVSSYLAWYQQKPGQAPRLLISDASNRATGIPARFSGSGSGTDFTLTISSLEPEDFAVYYCQQRSNWITFGQGTRLEIKR
notes: also called AGl 59; AG159 Ab
Q: What does the source list for B1?
A: IC50 of neutralization of glucagon stimulated luciferase reporter activity (cells expressing recombinant glucagon receptor, 0.1 nM glucagon) (glucagon [1]): 4 nM; IC50 (glucagon [2]): 0.2 nM

B2: GLP(A2G)-AG159LC:AG159 IgG2 (other)
light: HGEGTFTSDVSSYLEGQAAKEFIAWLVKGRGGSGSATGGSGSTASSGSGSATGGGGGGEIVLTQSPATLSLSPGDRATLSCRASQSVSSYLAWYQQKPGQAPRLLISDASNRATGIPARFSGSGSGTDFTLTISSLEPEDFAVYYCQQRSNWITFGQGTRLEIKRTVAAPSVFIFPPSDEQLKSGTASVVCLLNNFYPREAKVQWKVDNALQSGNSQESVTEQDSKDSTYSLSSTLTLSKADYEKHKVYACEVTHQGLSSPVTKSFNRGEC
heavy: QVQLVESGGGVVQPGRSLRLSCAASGFTFSSYGMHWVRQAPGKGLEWVAVIYYDGSNKYYADSVKGRFTISRDITKNTLYLQMNSLRAEDTAVYYCARASRGFDYWGQGTLVTVSS
notes: GLP-1 peptide-antibody fusion; also called GLP(A26)-AG159LC:AG159 IgG2; not shown: which one cannot be told, Tab
Q: What does the source list for B2?
A: EC50 of activation, GLP-1R luciferase reporter assay (human GLP-1 receptor [3]): 0.1 nM; EC50 of activation, GLP-1R luciferase reporter assay (mouse GLP-1 receptor): 5 nM; IC50 (human GLP-1 receptor [4]): 5 to 10 nM

B3: AG159LC:GLP(A2G)-AG159 IgG2 (other)
light: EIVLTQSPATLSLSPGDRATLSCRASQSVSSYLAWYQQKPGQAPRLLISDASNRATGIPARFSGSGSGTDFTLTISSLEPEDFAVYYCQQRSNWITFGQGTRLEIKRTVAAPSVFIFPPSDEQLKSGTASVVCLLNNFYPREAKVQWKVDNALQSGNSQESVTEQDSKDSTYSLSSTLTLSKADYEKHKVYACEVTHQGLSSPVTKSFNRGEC
heavy: HGEGTFTSDVSSYLEGQAAKEFIAWLVKGRGGSGSATGGSGSTASSGSGSATGGGGGGQVQLVESGGGVVQPGRSLRLSCAASGFTFSSYGMHWVRQAPGKGLEWVAVIYYDGSNKYYADSVKGRFTISRDITKNTLYLQMNSLRAEDTAVYYCARASRGFDYWGQGTLVTVSS
notes: GLP-1 peptide-antibody fusion; It was produced in CHO cells; also called GLP(A2G)-AG159 HC; AG159LC:GLP-1-AG159 IgG2; not shown: human IgG2 heavy chain constant region
Q: Which “EC50 of activation, GLP-1R luciferase reporter assay” value (human GLP-1 receptor [3]) does the source give for B3 here?
A: 0.1 nM

Q: What about the “EC50 of activation, GLP-1R luciferase reporter assay” value (mouse GLP-1 receptor) of the same binder?
A: 5 nM

Q: And the IC50 (human GLP-1 receptor [4])?
A: 5 to 10 nM
